Values quoted from earlier work as cited in patent publication US20010028895A1, “Methods of treating alzheimer's disease” (priority 2000, published 2001).

Legend:
[1] = among the eight 22-mer domains of apo A-I
[2] = among the eight 22-mer domains of apo A-I; remark: listed apart in the source
[3] = among the eight 22-mer domains of apo A-I; remark: listed apart in the source
[4] = among the eight 22-mer domains of apo A-I; remark: listed apart in the source

Substance	partition coefficient into POPC liposomes [1]	clarifying multilamellar vesicles of DMPC [2]	reduction in the enthalpy of the gel-to-liquid crystalline phase transition of DMPC MLVs [3]	exclusion pressure for penetration into egg yolk phosphatidylcholine monolayer [4]
44-65: synthesized N-terminal 22-mer amphipathic domain of human apo A-I, residues 44-65 (LKLLDNWDSVTSTFSKLREQLG; UniProt P02647 68-89, looked up, fragment)	highest partition coefficient	effective	greatest reduction	highest exclusion pressure
220-241: synthesized C-terminal 22-mer amphipathic domain of human apo A-I, residues 220-241 (PVLESFKVSFLSALEEYTKKLN; UniProt P02647 244-265, looked up, fragment)	highest partition coefficient	effective	greatest reduction	highest exclusion pressure
